Data published in patent US5837813, “Fibronectin Type III polypeptides” (La Jolla Cancer Research Foundation, dated 1998).

How the values were obtained:
human fibronectin [1] = molecular target: T1, human fibronectin (human, UniProt P02751); assay: solid-phase competition, 125I-14 kDa fragment on coated fibronectin
human fibronectin [2] = molecular target: T1, human fibronectin; assay: solid-phase competition, 125I-fibronectin on coated fibronectin

IC50 (human fibronectin [1]): 1000 nM
IC50 (human fibronectin [2]): ~1000 nM
Binder: NAPQPSHISKYILRWRPKNSVGRWKEATIPG [polypeptide P1]
